1 substance from PMC3296131 can be followed below.

The assay concerns the target CNGB3N-EGFP-F (striped bass (Morone saxatilis)) (UniProt Q3I0N1). Briefly: FRET or BRET.

For “CNG-modulin-HaloTag-TMR (from UniProt H8PG32 1-301) (natural protein)”, the E FRET (FRET efficiency), mean came to 0.3.
